Literature values as cited in article PMC5418926.

Biological target: Lys53 (UniProt position 53, YGGQTKPIFRK)
Test: chemical modification (inferred: crosslinking with periodate-oxidised tRNA); not described in this article

Substance	pKa (endogenous eL42 in situ in the human 80S ribosome, crosslinked with tRNAox)	pKa (recombinant eL42 off the ribosome)
60S ribosomal protein eL42 (L36a-like / RPL36AL), endogenous, in the human 80S ribosome (Homo sapiens)	6.9 ± 0.1	
60S ribosomal protein eL42 (formerly L36a / RPL36A), recombinant (Homo sapiens)		6.9 + 0.1
